According to patent publication US20080152587A1 (Amgen, published 2008):

T1: mouse uPAR on the surface of NCTC L929 cells (mouse, UniProt P35456 24-298)
T1 construct: whole, on cells; also called cell surface mouse uPAR
T1 sequence (looked up): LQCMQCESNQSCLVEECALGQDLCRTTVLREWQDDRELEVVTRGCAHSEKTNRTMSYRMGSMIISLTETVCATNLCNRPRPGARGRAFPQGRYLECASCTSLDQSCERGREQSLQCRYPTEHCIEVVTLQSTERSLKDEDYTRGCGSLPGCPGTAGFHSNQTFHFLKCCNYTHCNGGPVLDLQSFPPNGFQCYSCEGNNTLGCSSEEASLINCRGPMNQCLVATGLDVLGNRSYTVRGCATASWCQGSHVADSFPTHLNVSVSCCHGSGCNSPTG

T2: murine uPAR (form not stated) (mouse, UniProt P35456 24-297, limits assumed)
T2 construct: also called mouse uPAR
T2 sequence (looked up): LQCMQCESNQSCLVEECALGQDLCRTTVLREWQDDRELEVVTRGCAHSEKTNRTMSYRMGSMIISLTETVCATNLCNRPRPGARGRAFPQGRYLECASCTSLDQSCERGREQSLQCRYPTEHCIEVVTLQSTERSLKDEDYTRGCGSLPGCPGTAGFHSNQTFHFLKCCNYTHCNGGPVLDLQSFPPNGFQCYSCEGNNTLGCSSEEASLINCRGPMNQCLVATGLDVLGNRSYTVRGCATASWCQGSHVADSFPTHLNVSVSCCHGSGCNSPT

T3: human Ly6e with a myc tag, expressed in HEK293T cells (human, UniProt Q16553 21-101)
T3 construct: whole, on cells; not shown: myc tag fused on the molecule
T3 sequence (looked up): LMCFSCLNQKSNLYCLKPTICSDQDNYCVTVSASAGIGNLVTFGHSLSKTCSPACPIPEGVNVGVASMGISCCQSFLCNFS


Columns and labels:
[1] = target: T4, human urokinase-type plasminogen activator receptor (uPAR, CD87), cell-bound (human, UniProt Q03405 23-305); assay: cell-based or functional assay
[2] = target: T4, human urokinase-type plasminogen …; assay: cell-based or functional assay; remark: listed apart in the source
[3] = target: T5, soluble recombinant human uPAR/His6 (R&D Systems, Cat. # 807-UK-100) (human, UniProt Q03405 23-303); assay: low resolution Biacore
T5 construct: range 1-303; Bought protein; also called soluble uPAR; hu-uPAR
Method: (§1) A high-density goat anti-human antibody surface over a CM5 Biacore™ chip was prepared using routine amine coupling. […] Each mAb was captured on a separate flow cell using a 30-second contact time at 10 μL/min followed by a 5-minute wash at a 100 μL/min flow rate for stabilization of the mAb baseline. […] All antigen samples were prepared in the running buffer.

[4] = target: T1, mouse uPAR on the surface of NCTC L929 …; assay: FACS, NCTC L929 mouse cells
Method: (§2) To make the mouse cross-reactivity results conclusive, direct binding of the mAbs to cell-bound mouse uPAR was measured using FACS analysis. The mouse cell line derived from the connective tissue, NCTC L929, was employed for FACS analysis. The harvested cells were resuspended at 50,000 cells/well using FACS buffer into a V-bottom plate which was put on ice. […] After washing, Cy5-labeled goat anti-human IgG Fc at 5 μg/ml and 7AAD at 5 μg/ml was added. The mixtures were incubated for 15 min on ice, washed and resuspended in cold FACS buffer for FACS analysis.

[5] = target: T2, murine uPAR (form not stated); assay: summary column Murine X-reactivity
[6] = target: T1, mouse uPAR on the surface of NCTC L929 …; assay: FACS, NCTC L929 mouse cells, mAb 6.25 µg/ml
Method: as §2

[7] = target: T3, human Ly6e with a myc tag, expressed in …; assay: FACS, HEK293T cells expressing Ly6e, supernatant 1:2
Method: The reactivity of the antibodies to the HEK293T transfected to express Ly6e was determined by FACS analysis, using 1:2 hybridoma supernatants, and probed with goat anti-human γ chain conjugated with Cy5 (2.5 mg/ml, Jackson Immune Research). Binding of an anti-myc antibody (10 μg/ml, Invitrogen) to the transfectants served as a positive control, and binding of this antibody to the (Ly6e negative) parental cells served as the negative control.

[8] = target: T4, human urokinase-type plasminogen …; assay: FACS competition with FITC-tc-uPA, line material
From the text: (§3) Briefly, murine fibroblast L929 cells (ATCC) were transfected to express human uPAR.

[9] = target: T5, soluble recombinant human uPAR/His6 …; assay: limited antigen ELISA, uPAR coat 20 ng/mL, sample 1:25
Method: (§4) ELISA plates were coated with a lower amount ofuPAR in comparison with the High Antigen Quantitation assay described below (320, 160, 80, 40 and 20 ng/mL). Samples containing one concentration of antibody (Ab) (1:25 dilution) were incubated overnight to allow Ab binding to approach equilibrium.

[10] = target: T5, soluble recombinant human uPAR/His6 …; assay: limited antigen ELISA, uPAR coat 80 ng/mL, sample 1:25
Method: as §4

[11] = target: T4, human urokinase-type plasminogen …; assay: FACS, B300.19 cells expressing human uPAR, anti-human gamma Cy5
[12] = target: T5, soluble recombinant human uPAR/His6 …; assay: low resolution Biacore, mAb captured by goat anti-human, hu-uPAR 312 nM;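 note: surface plasmon resonance on a CM5 chip with goat anti-human antibody surface made by amine coupling, each mAb from supernatant captured per flow cell, kinetics fitted including mass transport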
Method: as §1
A mass transport coefficient was used in fitting the data.

[13] = target: T4, human urokinase-type plasminogen …; assay: FACS competition, FITC-tc-uPA on L929 cells expressing human uPAR, supernatant 1:2
From the text: as §3

[14] = target: T4, human urokinase-type plasminogen …; assay: FACS, U937 cells, mAb 5 µg/ml on ice, alexa647 goat anti-human F(ab), not stripped
Method: A cell suspension containing 100,000 cells was pipetted into each well of a V-bottom plates in duplicate. Two V-bottom plates were prepared, one to be kept at 37° C. during internalization with antibody complex, and the other to be incubated at 4° C. Each of the eight uPAR mAbs was incubated with U937 cells at 5 μg/ml on ice for 15 min. Incubation on ice was necessary to prevent internalization of the primary mAbs. The cells were then washed with cold FACS buffer. Cells were subsequently incubated on ice in 100 μl of 5 μg/ml alexa647-labelled goat anti-humanF(ab) (Invitrogen catalogue number A21249) in cold FACS buffer for 15 min. This allowed the goat FAB bind to the bound uPAR mAbs without permitting any internalization. After a 15 minute incubation on ice, one plate was kept on ice, while the other plate was incubated at 37° C. for 1 hour.
Following the 1 hr incubation with the mAb-FAB complex, the cells were washed twice with cold 5% FACS buffer, and 200 μl of Tris(2-carboxyethyl)phosphine HCl (TCEP) was added to each well as a stripping agent. The plates were both incubated with TCEP on ice for 1 hour, followed by washing and resuspending with FACS buffer. 4 μl of 7-Amino-Actinomycin D (7AAD) was added to each well, followed by 10 min incubation on ice before FACS analysis was conducted.

[15] = target: T6, cynomolgus monkey uPAR, cell-bound (cynomolgus monkey, UniProt Q9GK78 23-305); assay: FACS, GeoMean; cynomolgus uPAR expressed on 293T cells; antibody concentration not given
T6 construct: whole, on cells; also called cyno-uPAR

[16] = target: T4, human urokinase-type plasminogen …; assay: FACS, cells expressing human uPAR, line material

T5 sequence (Q03405 other isoform, or with tags, fused parts or gaps limits assumed, form in doubt): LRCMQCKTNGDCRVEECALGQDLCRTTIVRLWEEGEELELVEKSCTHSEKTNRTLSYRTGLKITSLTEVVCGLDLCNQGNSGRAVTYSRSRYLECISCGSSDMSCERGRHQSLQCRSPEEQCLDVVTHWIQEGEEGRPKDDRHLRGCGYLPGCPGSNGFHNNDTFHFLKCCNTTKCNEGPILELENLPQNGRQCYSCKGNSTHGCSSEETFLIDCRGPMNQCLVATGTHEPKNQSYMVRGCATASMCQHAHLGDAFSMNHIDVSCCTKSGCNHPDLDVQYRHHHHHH
T6 sequence (Q9GK78 23-305): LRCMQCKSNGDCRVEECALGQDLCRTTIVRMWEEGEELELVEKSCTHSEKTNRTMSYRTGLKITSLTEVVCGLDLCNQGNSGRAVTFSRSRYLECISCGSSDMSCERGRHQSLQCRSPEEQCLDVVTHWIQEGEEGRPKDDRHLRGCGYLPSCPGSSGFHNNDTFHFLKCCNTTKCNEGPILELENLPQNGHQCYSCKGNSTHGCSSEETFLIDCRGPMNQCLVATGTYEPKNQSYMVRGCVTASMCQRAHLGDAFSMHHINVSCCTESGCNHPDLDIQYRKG
T4 sequence (Q03405 23-305): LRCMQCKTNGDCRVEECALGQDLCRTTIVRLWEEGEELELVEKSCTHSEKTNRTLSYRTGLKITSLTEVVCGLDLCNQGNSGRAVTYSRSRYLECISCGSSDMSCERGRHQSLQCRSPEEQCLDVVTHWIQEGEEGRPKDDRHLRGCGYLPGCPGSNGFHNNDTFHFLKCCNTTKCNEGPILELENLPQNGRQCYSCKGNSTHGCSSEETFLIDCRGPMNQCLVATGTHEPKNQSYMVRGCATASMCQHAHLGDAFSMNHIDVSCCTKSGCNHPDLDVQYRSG

Binder | inhibition of plasminogen activation on U937 cells [1] | Plasminogen activation inhibition (IC50, ug/ml) [2] | Kd [3] | binding result [4] | binding result [5] | X Geo Mean [6] | binding result [7] | Human uPAR/uPA binding inhibition (%, line material) [8] | LA at 20 ng/ml [9] | LA at 80 ng/ml [10] | gCy5 Geo Mean Pos Cells [11] | Kd [12] | koff [12] | kon [12] | uPA/uPAR binding Inhibition % [13] | geo mean cold - TCEP [14] | binding result [15] | Ab to cell bound Ag (line material, FACS) [16]
anti-uPAR monoclonal antibody 4.12.1 (antibody, V domains shown) VH: EVQLVESGGGLVQPGGSLRLSCAASGFTFSSYWMSWVRQAPGTGLDWVANINQDGSERYYVDSVKGRFTISRDNAKNSPHLQMNSLRAEDTAVYYCAREGSGGRYGGWYFDLWGRGTLVTVSS VL: not shown | > 90% | 0.067 µg/mL | 20.6 nM | no binding (tested: 6.25 µg/ml) | no binding | 8.97 | no binding (tested: GeoMean ratio 1.95) | 71% | 0.06 | 0.21 | 317 | 20.6 nM | 0.0013 s⁻¹ | 63000 M⁻¹ s⁻¹ | 71% | 33.4 | binds | –
anti-uPAR monoclonal antibody 1.99.1 (antibody, V domains shown) VH: EVQLVESGGGLIQPGGSLRLSCAASGFTVRSNYMSWVRQAPGKGLEWISVIYTGGSTYYADSVKGRFSISRDNSKNTLYLQMNSLRAEDTAVYYCAREGAVAGFDYWGQGTLVTVSS VL: EIVMTQSPATLSVSPGERATLSCRASQSISSNLAWYQQKPGQAPRLLIYGASTRATGIPARFSGSGSGTEFTLTISSLQSEDFAVYYCQQYTNWPLTFGGGTKVEIK | > 90% | 0.066 µg/mL | 3.5 nM | no binding (tested: 6.25 µg/ml) | no binding | 11.7 | – | 78% | – | – | – | 3.5 nM | 0.00042 s⁻¹ | 120000 M⁻¹ s⁻¹ | – | 42.5 | binds | 514
anti-uPAR monoclonal antibody 4.19.1 (antibody, V domains shown) VH: EVQLVESGGGLIQPGGSLRLSCAASGFSVSSNYMNWVRQAPGKGLEWVSVIYTGGSTYYADSVKGRFTISRDNSKNTLYLQMNSLRAEDTAVYYCARDTYLYGMDVWGQGTTVTVSS VL: EIVMTQSPATLSVSPGESATLSCRTSQSVSSNLAWYQQKPGQTPRLLIYGASARATGVPARFSGSGSGTEFTLTISSLQSEDFAVYYCQQYYNWPLTFGGGTKVEIK | > 90% | 0.056 µg/mL | 2.7 nM | no binding (tested: 6.25 µg/ml) | no binding | 9.59 | no binding (tested: GeoMean ratio 1.95) | 77% | 0.16 | 1.03 | 412 | 2.7 nM | 0.00032 s⁻¹ | 120000 M⁻¹ s⁻¹ | 77% | 46 | binds | –
